# B1: KapD-6xHis (enzyme, B. subtilis, UniProt O05231 1-205, looked up)
# chain: MTTNSLLIIDFEFTMPDGKYSPQNFFPEIIEAGIVKSIDDEVVETFSSYVRPKKFPKLTKRCKSFLKITQKQVDEGMRFEDFIRKLNELDPEKNSTIITWGNMDMKVLKQNCMFNHIPFPFKGEMRDLSLEYKNFFGDRTLTGLWKAAEEYGDSGTGTHHKALDDALTAYKLFKLVEQDKQYLEKPKPPTIGERIDLTELLKRAT
# notes: KapD, 3'-exoribonuclease of the DEDDh family, Bacillus subtilis; kapD gene amplified with oligos CC073/074 and cloned in pET28a (EcoRI/SalI); also called KapD-His; His-tagged KapD; source: E. coli BL21 CodonPlus RIL (strain CCE095); in lysate (cells lysed together with the CotY strain), and purified (His-Trap, gel filtration) for KapD alone; not shown: His6, C-terminal, kept
# Molecular target: the molecule itself
# Test: SEC; KapD alone on the gel-filtration column; fractions 8-16 blotted with anti-KapD; size against a molecular weight marker
protein,measurement,value
B1,stoichiometry N,2
